± gives the uncertainty stated by the source.
Experiment: abundance fitness (aPCA) (normalised: wild type 0, dead -1); higher = more abundant; growth selection in yeast, the domain comes from the species named
Conditions: Homo sapiens
Work on “Transcriptional activator Myb W185G, P10242” yielded an abundance fitness of -0.702 ± 0.046.
“Transcriptional activator Myb W185K, P10242” showed an abundance fitness of -0.553 ± 0.11.
In the case of “Transcriptional activator Myb W185L, P10242”, the abundance fitness is reported as -0.509 ± 0.067.
“Transcriptional activator Myb W185M, P10242” showed an abundance fitness of -0.327 ± 0.13.
Work on “Transcriptional activator Myb W185N, P10242” yielded an abundance fitness of -0.55 ± 0.14.
“Transcriptional activator Myb W185P, P10242” showed an abundance fitness of -0.688 ± 0.15.
For “Transcriptional activator Myb W185Q, P10242”, the abundance fitness was -1.05 ± 0.25.
With “Transcriptional activator Myb W185R, P10242” the abundance fitness was -0.686 ± 0.066.
“Transcriptional activator Myb W185S, P10242” showed an abundance fitness of -0.648 ± 0.083.
“Transcriptional activator Myb W185T, P10242” gave an abundance fitness of -0.705 ± 0.12.
With “Transcriptional activator Myb W185V, P10242” the abundance fitness was -0.246 ± 0.053.
“Transcriptional activator Myb W185Y, P10242” showed an abundance fitness of -0.034 ± 0.14.
Substance “Transcriptional activator Myb Y156A, P10242” has an abundance fitness of -0.056 ± 0.049.
Substance “Transcriptional activator Myb Y156C, P10242” has an abundance fitness of -0.069 ± 0.076.
In the case of “Transcriptional activator Myb Y156D, P10242”, the abundance fitness is reported as -0.049 ± 0.086.
For “Transcriptional activator Myb Y156E, P10242”, the abundance fitness was -0.124 ± 0.055.
In the case of “Transcriptional activator Myb Y156F, P10242”, the abundance fitness is reported as 0.091 ± 0.11.
In the case of “Transcriptional activator Myb Y156G, P10242”, the abundance fitness is reported as -0.237 ± 0.034.
For “Transcriptional activator Myb Y156H, P10242”, the abundance fitness was -0.021 ± 0.11.
In the case of “Transcriptional activator Myb Y156I, P10242”, the abundance fitness is reported as -0.061 ± 0.13.
Work on “Transcriptional activator Myb Y156K, P10242” yielded an abundance fitness of -0.13 ± 0.062.
“Transcriptional activator Myb Y156L, P10242” gave an abundance fitness of 0.004 ± 0.047.
Substance “Transcriptional activator Myb Y156N, P10242” has an abundance fitness of -0.33 ± 0.12.
With “Transcriptional activator Myb Y156P, P10242” the abundance fitness was -0.859 ± 0.1.
For “Transcriptional activator Myb Y156Q, P10242”, the abundance fitness was -0.014 ± 0.073.
In the case of “Transcriptional activator Myb Y156R, P10242”, the abundance fitness is reported as -0.102 ± 0.037.
In the case of “Transcriptional activator Myb Y156S, P10242”, the abundance fitness is reported as -0.036 ± 0.047.
In the case of “Transcriptional activator Myb Y156T, P10242”, the abundance fitness is reported as -0.09 ± 0.072.
For “Transcriptional activator Myb Y156V, P10242”, the abundance fitness was -0.056 ± 0.046.
For “Transcriptional activator Myb Y156W, P10242”, the abundance fitness was -0.074 ± 0.046.
“Transcriptional activator Myb Y198A, P10242” showed an abundance fitness of 0.01 ± 0.086.
For “Transcriptional activator Myb Y198C, P10242”, the abundance fitness was -0.16 ± 0.14.
Work on “Transcriptional activator Myb Y198D, P10242” yielded an abundance fitness of -0.035 ± 0.12.
Substance “Transcriptional activator Myb Y198E, P10242” has an abundance fitness of 0.057 ± 0.099.
With “Transcriptional activator Myb Y198F, P10242” the abundance fitness was -0.033 ± 0.17.
“Transcriptional activator Myb Y198G, P10242” gave an abundance fitness of -0.041 ± 0.065.
In the case of “Transcriptional activator Myb Y198H, P10242”, the abundance fitness is reported as -0.145 ± 0.2.
Substance “Transcriptional activator Myb Y198I, P10242” has an abundance fitness of 0.093 ± 0.12.
Work on “Transcriptional activator Myb Y198K, P10242” yielded an abundance fitness of -0.011 ± 0.13.
With “Transcriptional activator Myb Y198L, P10242” the abundance fitness was 0.027 ± 0.089.
In the case of “Transcriptional activator Myb Y198M, P10242”, the abundance fitness is reported as -0.01 ± 0.1.
Substance “Transcriptional activator Myb Y198N, P10242” has an abundance fitness of 0.067 ± 0.11.
Work on “Transcriptional activator Myb Y198P, P10242” yielded an abundance fitness of 0.016 ± 0.14.
In the case of “Transcriptional activator Myb Y198Q, P10242”, the abundance fitness is reported as -0.02 ± 0.1.
“Transcriptional activator Myb Y198R, P10242” showed an abundance fitness of 0.054 ± 0.063.
With “Transcriptional activator Myb Y198S, P10242” the abundance fitness was 0.025 ± 0.065.
In the case of “Transcriptional activator Myb Y198T, P10242”, the abundance fitness is reported as -0.071 ± 0.1.
“Transcriptional activator Myb Y198V, P10242” gave an abundance fitness of -0.042 ± 0.069.
“Transcriptional activator Myb Y198W, P10242” showed an abundance fitness of -0.133 ± 0.095.
